Test results from patent publication US20130022592A1, “Continuous subcutaneous insulin infusion methods with a hyaluronan-degrading enzyme” (priority 2011, published 2013).
“Also recorded” adds a separate entry of the source. Where two headings read alike, the source gives them in different places.

What was measured:
[1] = cited from earlier work
[2] = Glucodynamics in euglycemic clamps, NovoLog CSII with or without rHuPH20 pretreatment (Example 3); assay type: in vivo, human; settings: for faster onset of action with rHuPH20 pretreatment / shorter duration of action with rHuPH20 pretreatment: vs without rHuPH20
Method: The subjects were confined to an inpatient setting for three days of study.
Approximately 2 hours after insertion of the new insulin infusion catheter set, a euglycemic glucose clamp experiment was conducted (1′ clamp). […] Blood glucose was clamped at 90% of the fasting level to suppress endogenous insulin release during the study. A 0.15 U/kg bolus was administered through the insulin pump; and the usual individual basal rate was continued during clamps and PK results are thus baseline-subtracted.
During the euglycemic glucose clamp experiment, the subjects were followed for six (6) hours during which blood was drawn and free insulin levels and glucose infusion rates required to maintain euglycemia were determined.
In each experiment, the subjects were followed for six (6) hours during which blood was drawn and free insulin levels and glucose infusion rates required to maintain euglycemia were determined as described above.
(§1) The insulin action profile as a function of time, or glucodynamics, was measured by determining the rate of glucose infusion necessary to maintain euglycemia following the bolus insulin infusion.

[3] = Blood glucose response to standardized evening meal (Example 3); assay type: in vivo, human; settings: with vs without rHuPH20
Source text: (§2) The study was continued to include 15 subjects who completed the study protocol, and was further continued to include 17 subjects who completed the study protocol. The subjects were confined to an inpatient setting for three days of study.

[4] = Glucodynamics in euglycemic clamps, rapid acting insulin analog CSII with rHuPH20 or sham injection (Example 4); assay type: in vivo, human
Source text: Patients with type 1 diabetes participated in a randomized, double-blind, 2-way crossover design clinical study comparing the administration of a single hyaluronidase injection at each infusion set change to sham injections in a CSII therapy. The study compared euglycemic clamp endpoints at the beginning and end of 3 days of continuous infusion and glycemic response to a series of four breakfast solid meal challenges. […] In addition, continuous glucose monitoring of the three subjects to compare glucose control in routine outpatient diabetes care also was assessed.
Subjects were released from the CRU the same day.
Subjects returned 3 days later for a second euglycemic clamp after 3 days of continuous infusion. After the clamp experiment the infusion set was changed and the patients discharged. […] Subjects returned to the CRU approximately every 3 days to receive a new infusion set and receive a patient specific standardized breakfast meal and insulin bolus.
as §1

[5] = Routine diabetes management, continuous glucose monitoring (Example 4); assay type: in vivo, human; settings: three patients; rHuPH20 preadministration
Method: The results are depicted below for the first three subjects that completed the study. In addition, continuous glucose monitoring of the three subjects to compare glucose control in routine outpatient diabetes care also was assessed. […] After the clamp experiment the infusion set was changed and the patients discharged. […] To maintain the double-blind study design, a trained professional not otherwise involved in the study administered either rHuPH20 or a sham injection while the patient looked away. After completion of the phase, patients returned to the CRU within 21 days to repeat these steps with the alternate treatment.

[6] = Adverse events (Example 4); assay type: in vivo, human; settings: eleven evaluable subjects
Source text: 4. […] All were mild and resolved without sequaelae. The most common event was headache (n=4).

[7] = in vivo
Method: as §2
Adverse events were assessed during the course or infusion treatment.

Lente
Peak ([1]; in vivo): 6 to 12 h

Regular Insulin
Duration ([1]; Table 2, Types of Insulins): 5 to 8 h
onset of action ([1]; administered subcutaneously alone): 30 min

detemir: long-lasting insulin (an analog)
Duration ([1]; Table 2, Types of Insulins): 28 h
Onset ([1]; Table 2, Types of Insulins): 4 to 6 h
Peak ([1]; Table 2, Types of Insulins): 18 to 28 h

insulin glargine
Duration ([1]; Table 2, Types of Insulins): 28 h
Onset ([1]; Table 2, Types of Insulins): 4 to 6 h
Peak ([1]; Table 2, Types of Insulins): 18 to 28 h

insulin lispro
Duration ([1]; Table 2, Types of Insulins): 3 to 4 h
Onset ([1]; Table 2, Types of Insulins): 0.083 to 0.25 h
Peak ([1]; Table 2, Types of Insulins): 0.75 to 1.5 h

B1: rHuPH20: soluble recombinant human PH20 hyaluronidase expressed in CHO cells from nucleic acid encoding amino acids 36-482 of SEQ ID NO:1; mixture of SEQ ID NOS:4-9 (protein, listed as Homo sapiens)
chain: LNFRAPPVIPNVPFLWAWNAPSEFCLGKFDEPLDMSLFSFIGSPRINATGQGVTIFYVDRLGYYPYIDSITGVTVNGGIPQKISLQDHLDKAKKDITFYMPVDNLGMAVIDWEEWRPTWARNWKPKDVYKNRSIELVQQQNVQLSLTEATEKAKQEFEKAGKDFLVETIKLGKLLRPNHLWGYYLFPDCYNHHYKKPGYNGSCFNVEIKRNDDLSWLWNESTALYPSIYLNTQQSPVAATLYVRNRVREAIRVSKIPDAKSPLPVFAYTRIVFTDQVLKFLSQDELVYTFGETVALGASGIVIWGTLSIMRSMKSCLLLDNYMETILNPYIINVTLAAKMCSQVLCQEQGVCIRKNWNSSDYLHLNPDNFAIQLEKGGKFTVRGKPTLEDLEQFSEKFYCSCYSTLSCKEKADVKDTDAVDVCIADGVCIDAFLKPPMETEEPQIFY
modifications: mixture of SEQ ID NOS:4-9; precursor human PH20
faster onset of action with rHuPH20 pretreatment ([2]; 15 completers): 9 min
shorter duration of action with rHuPH20 pretreatment ([2]; 15 completers): 27 min
faster onset of action with rHuPH20 pretreatment ([2]; 17 completers): 9 min
shorter duration of action with rHuPH20 pretreatment ([2]; 17 completers): 27 min
differences in early insulin exposure, onset or duration of action over three days of continuous infusion (in words) ([2]; Example 3, rHuPH20 pretreatment): no significant differences
reduction in 2 hour glycemic excursion ([3]; 15 completers): 21 mg/dL
reduction in 2 hour glycemic excursion ([3]; 17 completers): 19 mg/dL
differences in onset or duration of action over three days of continuous infusion (in words) ([4]; Example 4, rHuPH20 pretreatment): no significant differences
faster onset of action with rHuPH20 pretreatment ([4]; vs without rHuPH20): 21 min
shorter duration of action with rHuPH20 pretreatment ([4]; vs without rHuPH20): 30 min
outpatient glucose control (in words) [5]: tighter glucose control
Potential local site reactions (in words) [6]: an abdominal bruise; also recorded: pain at the infusion site; also recorded: a stinging sensation during infusion
subjects with adverse events related to CSII infusion sites (in words) [7]: two subjects
